Earlier results in publication PMC3905167.

Tests used:
Test in all cases: given as Ka
[1] = target: FcγRIIIa (F158) (Homo sapiens) (UniProt P08637)
[2] = target: FcγRIIIa (V158) (Homo sapiens) (UniProt P08637)
FcγRI (Homo sapiens) = FcγRI (Homo sapiens) (UniProt P12314)
[3] = target: FcγRIIa (R131) (Homo sapiens) (UniProt P12318)
[4] = target: FcγRIIa (H131) (Homo sapiens) (UniProt P12318)
Sequence of FcγRIIa (H131) (Homo sapiens) (P12318 34-317): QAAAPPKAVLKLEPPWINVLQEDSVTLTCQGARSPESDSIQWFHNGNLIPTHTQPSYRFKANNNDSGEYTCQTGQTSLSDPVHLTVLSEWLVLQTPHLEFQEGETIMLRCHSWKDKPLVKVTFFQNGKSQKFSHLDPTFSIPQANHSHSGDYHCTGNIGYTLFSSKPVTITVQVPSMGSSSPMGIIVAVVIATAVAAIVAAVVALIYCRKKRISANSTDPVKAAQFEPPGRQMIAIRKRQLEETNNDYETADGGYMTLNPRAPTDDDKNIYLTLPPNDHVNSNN

Sequence of IgG4 (P01861 whole entry): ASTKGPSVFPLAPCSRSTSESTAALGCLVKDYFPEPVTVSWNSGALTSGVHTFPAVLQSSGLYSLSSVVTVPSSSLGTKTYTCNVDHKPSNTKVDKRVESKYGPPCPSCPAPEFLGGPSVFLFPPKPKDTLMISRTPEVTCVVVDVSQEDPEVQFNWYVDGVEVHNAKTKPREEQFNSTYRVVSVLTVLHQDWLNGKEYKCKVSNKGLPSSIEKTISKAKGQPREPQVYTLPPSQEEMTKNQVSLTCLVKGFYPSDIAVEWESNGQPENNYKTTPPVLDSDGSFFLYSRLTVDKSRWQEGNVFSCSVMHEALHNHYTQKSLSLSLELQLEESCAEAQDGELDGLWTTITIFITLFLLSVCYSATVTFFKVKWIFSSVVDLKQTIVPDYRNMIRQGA
Sequence of FcγRIIa (R131) (Homo sapiens) (P12318 34-317): as the sequence (P12318 34-317) above
Sequence of FcγRI (Homo sapiens) (P12314 16-374): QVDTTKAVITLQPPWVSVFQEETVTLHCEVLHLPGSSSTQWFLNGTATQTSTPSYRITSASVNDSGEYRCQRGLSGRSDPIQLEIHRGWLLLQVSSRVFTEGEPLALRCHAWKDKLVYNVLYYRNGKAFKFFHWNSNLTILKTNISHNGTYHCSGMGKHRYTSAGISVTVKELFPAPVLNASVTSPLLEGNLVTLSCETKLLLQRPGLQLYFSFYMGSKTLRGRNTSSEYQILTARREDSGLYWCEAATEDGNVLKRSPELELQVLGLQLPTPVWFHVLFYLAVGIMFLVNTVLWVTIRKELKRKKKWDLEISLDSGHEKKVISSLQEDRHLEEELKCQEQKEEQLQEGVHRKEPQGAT
Sequence of FcγRIIIa (F158) (Homo sapiens) (P08637 17-254): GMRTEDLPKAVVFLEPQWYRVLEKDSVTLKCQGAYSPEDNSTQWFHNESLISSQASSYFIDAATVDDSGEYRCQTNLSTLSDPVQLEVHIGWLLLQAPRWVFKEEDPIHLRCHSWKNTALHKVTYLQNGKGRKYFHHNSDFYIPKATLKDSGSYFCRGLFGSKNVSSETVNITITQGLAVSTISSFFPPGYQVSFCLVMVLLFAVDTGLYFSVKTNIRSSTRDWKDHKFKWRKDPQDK
Sequence of FcγRIIIa (V158) (Homo sapiens) (P08637 17-254): as above

| Kd [1] | Kd [2] | Kd (FcγRI (Homo sapiens)) | Kd [3] | Kd [4] | Substance |
| --- | --- | --- | --- | --- | --- |
| 0.855 µM | 0.5 µM | 0.0154 µM | 0.286 µM | 0.192 µM | IgG1 (from UniProt P01857) |
| 5 µM | 4 µM | 0.0294 µM | 4.76 µM | 5.88 µM | IgG4 (from UniProt P01861) |
